Values belong to the binder of their own block, whether it stands above or below them. Where no end group is shown, it is not given here.
Target: T1, mouse PD-L1 (mouse, UniProt Q9EP73 19-290)
T1 construct: whole, on cells; Endogenous protein of mouse tumor cell lines; also called PD-L1 on mouse pancreatic cancer KC, Panc02 and KPC cells
Test: peptide-IONP conjugates on KC and Panc02 cells, Prussian blue staining

T1 sequence (Q9EP73 19-290): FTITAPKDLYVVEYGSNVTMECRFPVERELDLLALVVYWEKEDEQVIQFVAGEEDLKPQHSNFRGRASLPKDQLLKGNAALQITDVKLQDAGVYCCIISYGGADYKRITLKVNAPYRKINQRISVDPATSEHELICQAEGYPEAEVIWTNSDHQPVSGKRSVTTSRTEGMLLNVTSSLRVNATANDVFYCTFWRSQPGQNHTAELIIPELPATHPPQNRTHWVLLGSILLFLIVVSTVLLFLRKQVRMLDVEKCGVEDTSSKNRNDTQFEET

- binding result: binds
B1: PD-1 (Y) peptide (peptide)
peptide: NWNRLSPSNQTEKQAAPHHHHCGAISLHPKAKIEE
modifications: not fully specified; also: FITC label in competition assay, place not given here
notes: also called PDIY; PD-1 like peptide

- binding result: binds
B2: PD-1 (Lin) peptide (peptide)
peptide: NWNRLSPSNQTEKQAACGAISLHPKAKIEESPGHHHH
modifications: also: FITC label in competition assay, place not given here, bound via His tag to NTA-Cu on IONPs or NTA-Ni beads
notes: Tested as FITC-labelled free peptide, as IONP conjugate and on NTA-Ni beads; also called PD-1 like peptide; PD-1 Lin-IONP (when conjugated to iron oxide nanoparticles)

— US20240400641A1 (EMORY UNIVERSITY, published 2024)
